This is an account of results in patent US20220144956A1 (published 2022).

B1: H1 L1.44 XENP34607 (antibody, V domains shown)
VH: QLQVQESGPGLVKPSETLSLTCTVSGGSISNSYFSWGWIRQPPGKGLEWIGSFYYGEKTYYNPSLKSRATISIDTSKSQFSLKLSSVTAADTAVYYCPRGPTMIRGVIDSWGQGTLVTVSS
VL: EIVLTQSPATLSLSPGERATLSCRASQSVRSYLAWYQQKPGQAPRLLIYDASNRATGIPARFSGSGSGTDFTLTISSLEPEDFAVYYCQQRTNWPPTFGQGTKVEIK
B2: H1 L1.27 XENP34590 (antibody, V domains shown)
VH: QLQVQESGPGLVKPSETLSLTCTVSGGSISNSYFSWGWIRQPPGKGLEWIGSFYYGEKTYYNPSLKSRATISIDTSKSQFSLKLSSVTAADTAVYYCPRGPTMIRGVIDSWGQGTLVTVSS
VL: EIVLTQSPATLSLSPGERATLSCRASQSVRSYLAWYQQKPGQAPRLLIYDASNRATSIPARFSGSGSGTDFTLTISSLEPEDFAVYYCQQRSNWPPTFGQGTKVEIK
B3: H1 L1.23 XENP34586 (antibody, V domains shown)
VH: QLQVQESGPGLVKPSETLSLTCTVSGGSISNSYFSWGWIRQPPGKGLEWIGSFYYGEKTYYNPSLKSRATISIDTSKSQFSLKLSSVTAADTAVYYCPRGPTMIRGVIDSWGQGTLVTVSS
VL: EIVLTQSPATLSLSPGERATLSCRASQSVRSYLAWYQQKPGQAPRLLIYDASDRATGIPARFSGSGSGTDFTLTISSLEPEDFAVYYCQQRSNWPPTFGQGTKVEIK
B4: H1 L1.25 XENP34588 (antibody, V domains shown)
VH: QLQVQESGPGLVKPSETLSLTCTVSGGSISNSYFSWGWIRQPPGKGLEWIGSFYYGEKTYYNPSLKSRATISIDTSKSQFSLKLSSVTAADTAVYYCPRGPTMIRGVIDSWGQGTLVTVSS
VL: EIVLTQSPATLSLSPGERATLSCRASQSVRSYLAWYQQKPGQAPRLLIYDASTRATGIPARFSGSGSGTDFTLTISSLEPEDFAVYYCQQRSNWPPTFGQGTKVEIK
B5: H1 L1.13 XENP34576 (antibody, V domains shown)
VH: QLQVQESGPGLVKPSETLSLTCTVSGGSISNSYFSWGWIRQPPGKGLEWIGSFYYGEKTYYNPSLKSRATISIDTSKSQFSLKLSSVTAADTAVYYCPRGPTMIRGVIDSWGQGTLVTVSS
VL: EIVLTQSPATLSLSPGERATLSCRASQSVRSHLAWYQQKPGQAPRLLIYDASNRATGIPARFSGSGSGTDFTLTISSLEPEDFAVYYCQQRSNWPPTFGQGTKVEIK
B6: H1 L1.18 XENP34581 (antibody, V domains shown)
VH: QLQVQESGPGLVKPSETLSLTCTVSGGSISNSYFSWGWIRQPPGKGLEWIGSFYYGEKTYYNPSLKSRATISIDTSKSQFSLKLSSVTAADTAVYYCPRGPTMIRGVIDSWGQGTLVTVSS
VL: EIVLTQSPATLSLSPGERATLSCRASQSVRSYLAWYQQKPGKAPRLLIYDASNRATGIPARFSGSGSGTDFTLTISSLEPEDFAVYYCQQRSNWPPTFGQGTKVEIK
B7: H1 L1.17 XENP34580 (antibody, V domains shown)
VH: QLQVQESGPGLVKPSETLSLTCTVSGGSISNSYFSWGWIRQPPGKGLEWIGSFYYGEKTYYNPSLKSRATISIDTSKSQFSLKLSSVTAADTAVYYCPRGPTMIRGVIDSWGQGTLVTVSS
VL: EIVLTQSPATLSLSPGERATLSCRASQSVRSYLTWYQQKPGQAPRLLIYDASNRATGIPARFSGSGSGTDFTLTISSLEPEDFAVYYCQQRSNWPPTFGQGTKVEIK
B8: H1 L1.14 XENP34577 (antibody, V domains shown)
VH: QLQVQESGPGLVKPSETLSLTCTVSGGSISNSYFSWGWIRQPPGKGLEWIGSFYYGEKTYYNPSLKSRATISIDTSKSQFSLKLSSVTAADTAVYYCPRGPTMIRGVIDSWGQGTLVTVSS
VL: EIVLTQSPATLSLSPGERATLSCRASQSVRSNLAWYQQKPGQAPRLLIYDASNRATGIPARFSGSGSGTDFTLTISSLEPEDFAVYYCQQRSNWPPTFGQGTKVEIK
B9: H1 L1.16 XENP34579 (antibody, V domains shown)
VH: QLQVQESGPGLVKPSETLSLTCTVSGGSISNSYFSWGWIRQPPGKGLEWIGSFYYGEKTYYNPSLKSRATISIDTSKSQFSLKLSSVTAADTAVYYCPRGPTMIRGVIDSWGQGTLVTVSS
VL: EIVLTQSPATLSLSPGERATLSCRASQSVRSYLSWYQQKPGQAPRLLIYDASNRATGIPARFSGSGSGTDFTLTISSLEPEDFAVYYCQQRSNWPPTFGQGTKVEIK
B10: H1 L1.41 XENP34604 (antibody, V domains shown)
VH: QLQVQESGPGLVKPSETLSLTCTVSGGSISNSYFSWGWIRQPPGKGLEWIGSFYYGEKTYYNPSLKSRATISIDTSKSQFSLKLSSVTAADTAVYYCPRGPTMIRGVIDSWGQGTLVTVSS
VL: EIVLTQSPATLSLSPGERATLSCRASQSVRSYLAWYQQKPGQAPRLLIYDASNRATGIPARFSGSGSGTDFTLTISSLEPEDFAVYYCQQRANWPPTFGQGTKVEIK
B11: H1 L1.39 XENP34602 (antibody, V domains shown)
VH: QLQVQESGPGLVKPSETLSLTCTVSGGSISNSYFSWGWIRQPPGKGLEWIGSFYYGEKTYYNPSLKSRATISIDTSKSQFSLKLSSVTAADTAVYYCPRGPTMIRGVIDSWGQGTLVTVSS
VL: EIVLTQSPATLSLSPGERATLSCRASQSVRSYLAWYQQKPGQAPRLLIYDASNRATGIPARFSGSGSGTDFTLTISSLEPEDFAVYYCQQQSNWPPTFGQGTKVEIK
B12: H1 L1.11 XENP34574 (antibody, V domains shown)
VH: QLQVQESGPGLVKPSETLSLTCTVSGGSISNSYFSWGWIRQPPGKGLEWIGSFYYGEKTYYNPSLKSRATISIDTSKSQFSLKLSSVTAADTAVYYCPRGPTMIRGVIDSWGQGTLVTVSS
VL: EIVLTQSPATLSLSPGERATLSCRASQSVRNYLAWYQQKPGQAPRLLIYDASNRATGIPARFSGSGSGTDFTLTISSLEPEDFAVYYCQQRSNWPPTFGQGTKVEIK
B13: H1 L1.26 XENP34589 (antibody, V domains shown)
VH: QLQVQESGPGLVKPSETLSLTCTVSGGSISNSYFSWGWIRQPPGKGLEWIGSFYYGEKTYYNPSLKSRATISIDTSKSQFSLKLSSVTAADTAVYYCPRGPTMIRGVIDSWGQGTLVTVSS
VL: EIVLTQSPATLSLSPGERATLSCRASQSVRSYLAWYQQKPGQAPRLLIYDASNRASGIPARFSGSGSGTDFTLTISSLEPEDFAVYYCQQRSNWPPTFGQGTKVEIK
B14: H1 L1.10 XENP34573 (antibody, V domains shown)
VH: QLQVQESGPGLVKPSETLSLTCTVSGGSISNSYFSWGWIRQPPGKGLEWIGSFYYGEKTYYNPSLKSRATISIDTSKSQFSLKLSSVTAADTAVYYCPRGPTMIRGVIDSWGQGTLVTVSS
VL: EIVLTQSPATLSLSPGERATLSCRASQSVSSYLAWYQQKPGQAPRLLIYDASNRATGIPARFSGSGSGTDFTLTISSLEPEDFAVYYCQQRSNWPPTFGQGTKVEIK
B15: H1 L1.19 XENP34582 (antibody, V domains shown)
VH: QLQVQESGPGLVKPSETLSLTCTVSGGSISNSYFSWGWIRQPPGKGLEWIGSFYYGEKTYYNPSLKSRATISIDTSKSQFSLKLSSVTAADTAVYYCPRGPTMIRGVIDSWGQGTLVTVSS
VL: EIVLTQSPATLSLSPGERATLSCRASQSVRSYLAWYQQKPGLAPRLLIYDASNRATGIPARFSGSGSGTDFTLTISSLEPEDFAVYYCQQRSNWPPTFGQGTKVEIK
B16: H1 L1.33 XENP34596 (antibody, V domains shown)
VH: QLQVQESGPGLVKPSETLSLTCTVSGGSISNSYFSWGWIRQPPGKGLEWIGSFYYGEKTYYNPSLKSRATISIDTSKSQFSLKLSSVTAADTAVYYCPRGPTMIRGVIDSWGQGTLVTVSS
VL: EIVLTQSPATLSLSPGERATLSCRASQSVRSYLAWYQQKPGQAPRLLIYDASNRATGIPARFSGSGSGTDFTLTISSLESEDFAVYYCQQRSNWPPTFGQGTKVEIK
B17: H1 L1.8 XENP34571 (antibody, V domains shown)
VH: QLQVQESGPGLVKPSETLSLTCTVSGGSISNSYFSWGWIRQPPGKGLEWIGSFYYGEKTYYNPSLKSRATISIDTSKSQFSLKLSSVTAADTAVYYCPRGPTMIRGVIDSWGQGTLVTVSS
VL: EIVLTQSPATLSLSPGERATLSCRASQSVKSYLAWYQQKPGQAPRLLIYDASNRATGIPARFSGSGSGTDFTLTISSLEPEDFAVYYCQQRSNWPPTFGQGTKVEIK
B18: H1 L1.28 XENP34591 (antibody, V domains shown)
VH: QLQVQESGPGLVKPSETLSLTCTVSGGSISNSYFSWGWIRQPPGKGLEWIGSFYYGEKTYYNPSLKSRATISIDTSKSQFSLKLSSVTAADTAVYYCPRGPTMIRGVIDSWGQGTLVTVSS
VL: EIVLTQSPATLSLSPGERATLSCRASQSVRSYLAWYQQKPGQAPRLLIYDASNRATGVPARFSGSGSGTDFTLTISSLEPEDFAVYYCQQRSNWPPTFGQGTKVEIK
B19: H1 L1.32 XENP34595 (antibody, V domains shown)
VH: QLQVQESGPGLVKPSETLSLTCTVSGGSISNSYFSWGWIRQPPGKGLEWIGSFYYGEKTYYNPSLKSRATISIDTSKSQFSLKLSSVTAADTAVYYCPRGPTMIRGVIDSWGQGTLVTVSS
VL: EIVLTQSPATLSLSPGERATLSCRASQSVRSYLAWYQQKPGQAPRLLIYDASNRATGIPARFSGSGSGTDFTLTISSLQPEDFAVYYCQQRSNWPPTFGQGTKVEIK
B20: H1 L1.38 XENP34601 (antibody, V domains shown)
VH: QLQVQESGPGLVKPSETLSLTCTVSGGSISNSYFSWGWIRQPPGKGLEWIGSFYYGEKTYYNPSLKSRATISIDTSKSQFSLKLSSVTAADTAVYYCPRGPTMIRGVIDSWGQGTLVTVSS
VL: EIVLTQSPATLSLSPGERATLSCRASQSVRSYLAWYQQKPGQAPRLLIYDASNRATGIPARFSGSGSGTDFTLTISSLEPEDFAVYYCQQSSNWPPTFGQGTKVEIK
B21: H1 L1.15 XENP34578 (antibody, V domains shown)
VH: QLQVQESGPGLVKPSETLSLTCTVSGGSISNSYFSWGWIRQPPGKGLEWIGSFYYGEKTYYNPSLKSRATISIDTSKSQFSLKLSSVTAADTAVYYCPRGPTMIRGVIDSWGQGTLVTVSS
VL: EIVLTQSPATLSLSPGERATLSCRASQSVRSYLNWYQQKPGQAPRLLIYDASNRATGIPARFSGSGSGTDFTLTISSLEPEDFAVYYCQQRSNWPPTFGQGTKVEIK
B22: H1 L1.21 XENP34584 (antibody, V domains shown)
VH: QLQVQESGPGLVKPSETLSLTCTVSGGSISNSYFSWGWIRQPPGKGLEWIGSFYYGEKTYYNPSLKSRATISIDTSKSQFSLKLSSVTAADTAVYYCPRGPTMIRGVIDSWGQGTLVTVSS
VL: EIVLTQSPATLSLSPGERATLSCRASQSVRSYLAWYQQKPGQAPRLLIYGASNRATGIPARFSGSGSGTDFTLTISSLEPEDFAVYYCQQRSNWPPTFGQGTKVEIK

Chain of human TGFßRII (antigen of the Octet experiments) (P37173 23-166): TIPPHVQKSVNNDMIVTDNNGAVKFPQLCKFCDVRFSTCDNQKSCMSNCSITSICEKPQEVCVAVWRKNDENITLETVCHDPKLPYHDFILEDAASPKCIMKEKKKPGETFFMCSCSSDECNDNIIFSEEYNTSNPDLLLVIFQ

The experiment addresses human TGFßRII (antigen of the Octet experiments) (human, UniProt P37173 23-166). Put plainly: BLI (Octet). Background: Biolayer interferometry detects binding as a change in optical thickness at a sensor tip.
With B1, the affinity, expressed as Kd, was 2.03 nM. Turning to B2, the dissociation constant (Kd) – broadly, a measure of binding affinity in units of concentration – stood at 0.92 nM. On to B3, for which the Kd amounted to 0.479 nM. With B4, the affinity, expressed as Kd, was 0.921 nM.

Take B5: the affinity, expressed as Kd, was 1.19 nM.

Molecule B6 returned a Kd of 0.831 nM. As for B7, the figure is 0.622 nM; as for B8, 1.26 nM; as for B9, 0.464 nM.

Molecule B10 registered a Kd of 2.49 nM. As for B11, the figure is 21 nM; as for B12, 0.597 nM; as for B13, 0.99 nM. With B14 the figure was 10.7 nM. B15 registered a Kd of 0.905 nM.

B16 yielded a Kd of 0.873 nM. As for B17, the figure is 1.11 nM. As for B18, the figure is 0.891 nM.

In the case of B19, the Kd stood at 1 nM. As for B20, the figure is 24.5 nM. For the molecule B21, the Kd was determined as 2.48 nM. With B22 the figure was 0.429 nM.
